These are literature values, as cited in article PMC10810742.

Broadly, the Kd is the free concentration of one partner at which half of the binding sites on the other are occupied at equilibrium, for simple one-to-one binding.

The series addresses Ubiquitin (Homo sapiens) (UniProt P0CG47).

Sequence of CteC (Q7NY09 whole entry): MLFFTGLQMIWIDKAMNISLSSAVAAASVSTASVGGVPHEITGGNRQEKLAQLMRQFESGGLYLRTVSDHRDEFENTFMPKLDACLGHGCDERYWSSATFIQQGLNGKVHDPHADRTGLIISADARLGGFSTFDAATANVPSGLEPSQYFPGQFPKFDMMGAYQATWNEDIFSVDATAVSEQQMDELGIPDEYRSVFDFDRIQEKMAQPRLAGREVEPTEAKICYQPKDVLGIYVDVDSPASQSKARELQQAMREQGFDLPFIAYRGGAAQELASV

On to CteC (from UniProt Q7NY09), for which the Kd was 78.7 µM.
